Measurements as given in the supplement of paper PMC9732359.
± gives the uncertainty stated by the source.

Test: protein stability index of a GFP-peptide fusion (yeast GPS) (PSI 1-4); higher = more stable; sorted into four equal gates, so the index is relative within each strain
Summary of the method: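 Tiled 17-residue peptides from yeast proteins were fused downstream of GFP on a plasmid that also expresses Cherry, and the pooled library was carried in yeast. Mid-log cultures grown in leucine-free medium were sorted into four equal gates by GFP/Cherry fluorescence ratio. Plasmids from each gate were PCR-amplified and Illumina-sequenced, and reads were assigned to strains by barcodes. Each peptide's protein stability index is the sum, over gates, of the gate's read frequency multiplied by its gate number.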

Row | Sequence | protein stability index (doa10∆) | protein stability index (pdr5∆) | protein stability index (san1∆) | protein stability index (ubr1∆)
1 | SIMAVTFKDGVILGADS [PRE3] | 1.66 ± 0.1 | 2.61 ± 0.094 | 2.94 ± 0.086 | 2.59 ± 0.14
2 | ITVVLGVNGYIWLRKTS [RRP4] | 1.61 ± 0.2 | 1.62 ± 0.12 | 1.34 ± 0.26 | 1.95 ± 0.11
3 | DLPISSTDNEAITISNS [SMC1] | 2.8 ± 0.079 | 2.89 ± 0.093 | 2.7 ± 0.054 | 2.91 ± 0.059
4 | IGVIAGGGRVDKPLLKA [RPL2A] | 3.2 ± 0.088 | 3.16 ± 0.09 | 3.05 ± 0.11 | 2.98 ± 0.066
5 | MFILSKIADLVRIPPDQ [RPC25] | – | 2.69 ± 0.22 | – | –
6 | EAAKPSLSFGSGSAGAN [YJL041W/NSP1] | 2.83 ± 0.11 | 2.81 ± 0.13 | 3.02 ± 0.13 | 3 ± 0.071
7 | TVEGISKLLREHGYQSR [RPB2] | 3.4 ± 0.21 | 2.97 ± 0.21 | – | 2.64 ± 0.093
8 | NFESISARSSVHESLVT [SRB8] | 2.49 ± 0.052 | 2.1 ± 0.039 | 2.17 ± 0.062 | 2.26 ± 0.027
9 | MARYGATSTNPAKSASA [RPL17A] | 2.59 ± 0.056 | 2.91 ± 0.064 | 2.31 ± 0.09 | 2.9 ± 0.048
10 | VDKNFDKLELYVLRNVL [MTW1] | 3.01 ± 0.096 | 2.43 ± 0.078 | 2.81 ± 0.12 | 3.05 ± 0.071
11 | VKPQYDEIHIPAPSKPV [BRR2] | 2.59 ± 0.097 | 2.59 ± 0.12 | 2.41 ± 0.084 | 1.83 ± 0.093
12 | NYLNDMHDSNLQNNSDS [SKP1] | 2.48 ± 0.12 | 2.59 ± 0.063 | 2.3 ± 0.08 | 2.7 ± 0.054
13 | SGKRKPTKAAQRARDQD [GAL11] | – | 3.65 ± 0.16 | 3.25 ± 0.28 | 3.58 ± 0.15
14 | IRQAIAKGLVAYHQKYV [RPS16A] | 1.21 ± 0.096 | 1.27 ± 0.069 | 1.41 ± 0.18 | 1.1 ± 0.033
15 | LDPISLILIPGETMWVP [RPN13] | 2.28 ± 0.095 | 2.45 ± 0.049 | 2.95 ± 0.093 | 3.4 ± 0.12
16 | KGRNNESNNKKYPIFTG [YDL088C/ASM4] | 2.87 ± 0.064 | 2.95 ± 0.063 | 2.67 ± 0.059 | 2.9 ± 0.049
17 | NYSSESYRNAFTNVLTK [YJL039C/NUP192] | 2.56 ± 0.047 | 2.38 ± 0.067 | 2.31 ± 0.067 | 2.48 ± 0.038
18 | QGGVLPNIHQNLLPKKS [HTA1] | 2.67 ± 0.082 | 2.75 ± 0.074 | 2.9 ± 0.076 | 2.71 ± 0.057
19 | HSPFPFNRTKGKMVRAQ [PRP8] | 1.84 ± 0.2 | 1.16 ± 0.14 | – | 1.05 ± 0.094
20 | EVAIRDVNLDVRIHSIQ [IRR1] | 2.4 ± 0.06 | 2.1 ± 0.061 | 2.49 ± 0.059 | 1.68 ± 0.052
21 | GPIKTPVGACATSVESV [FAS2] | 1.39 ± 0.073 | 2.13 ± 0.12 | 2.15 ± 0.11 | 2.22 ± 0.077
22 | SVFYTILRDYGPQEAAN [RPO31] | 3.42 ± 0.11 | 3.25 ± 0.094 | 3.27 ± 0.071 | 2.88 ± 0.069
23 | DLKFEPQGRQSTTFADC [RPC40] | 3.37 ± 0.19 | 3.3 ± 0.29 | – | 3.15 ± 0.075
24 | KFPPPTPLLENISISTS [BRR2] | 1.83 ± 0.054 | 1.84 ± 0.056 | 1.63 ± 0.094 | 1.68 ± 0.045
25 | CTEAGLLALRERRMQVT [RPT2] | 2.17 ± 0.092 | 2.9 ± 0.15 | 2.33 ± 0.14 | 2.7 ± 0.11
26 | DTDNECVAAWGVCNHAF [HRT1] | 3.25 ± 0.095 | 3.3 ± 0.059 | 3.33 ± 0.054 | 3.15 ± 0.05
27 | KFTTVLAKILARSIDVE [ECM29] | – | 1.53 ± 0.2 | 2.94 ± 0.14 | 3.01 ± 0.22
